This note sets out measurements from US20100111916A1.

Holding throughout (assay): cell-based or functional assay
Assay [1] has as its target CD80 (mouse) (UniProt Q00609).
The target in assay [2] is CD54 (mouse) (UniProt P13597).
For assay [3], the target named is H-2K^b/OVAI peptide complex (mouse).

UniProt P13597, sequence (P13597 28-537): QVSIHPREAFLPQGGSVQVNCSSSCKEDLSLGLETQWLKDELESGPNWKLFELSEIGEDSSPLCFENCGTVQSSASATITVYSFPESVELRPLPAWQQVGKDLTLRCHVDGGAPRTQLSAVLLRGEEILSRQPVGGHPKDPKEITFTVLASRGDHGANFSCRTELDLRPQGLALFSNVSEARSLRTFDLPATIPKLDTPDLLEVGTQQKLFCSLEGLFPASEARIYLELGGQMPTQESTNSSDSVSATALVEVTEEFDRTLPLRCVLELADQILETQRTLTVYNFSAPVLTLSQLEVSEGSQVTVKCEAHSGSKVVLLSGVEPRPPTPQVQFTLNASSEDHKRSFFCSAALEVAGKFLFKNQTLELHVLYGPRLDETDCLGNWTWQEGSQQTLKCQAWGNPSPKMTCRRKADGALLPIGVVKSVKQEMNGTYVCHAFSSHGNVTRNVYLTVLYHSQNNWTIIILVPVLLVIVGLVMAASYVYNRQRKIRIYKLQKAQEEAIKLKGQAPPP
UniProt Q00609, sequence (Q00609 38-306): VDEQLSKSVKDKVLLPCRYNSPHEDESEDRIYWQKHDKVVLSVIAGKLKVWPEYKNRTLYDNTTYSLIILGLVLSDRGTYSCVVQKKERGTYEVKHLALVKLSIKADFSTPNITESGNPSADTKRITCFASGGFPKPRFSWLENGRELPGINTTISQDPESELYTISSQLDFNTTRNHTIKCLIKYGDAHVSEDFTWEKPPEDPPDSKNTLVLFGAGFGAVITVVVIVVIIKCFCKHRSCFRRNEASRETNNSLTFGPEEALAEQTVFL

Regarding “CD28 (from UniProt P31041 20-218) (receptor)”, in assay [1], the inhibition of Th-APC-stimulated OT I CD8^+ T cell proliferative response by CTLA-4/Ig fusion protein (15 µg/ml) worked out at 58%, the inhibition of aTEXO-stimulated OT I CD8^+ T cell proliferative response by CTLA-4/Ig (10 µg/ml) amounted to 49% and the inhibition of mDCEXO-stimulated OT I CD8^+ T cell proliferative response by CTLA-4/Ig (10 µg/ml) is 56%.

In assay [2], “LFA-1 (from UniProt P24063 24-1162; P11835 24-771) (receptor)” came in with an inhibition of Th-APC-stimulated OT I CD8^+ T cell proliferative response by anti-LFA-1 Ab (15 µg/ml) of 50%, an inhibition of aTEXO-stimulated OT I CD8^+ T cell proliferative response by anti-LFA-1 Ab (10 µg/ml) of 52% and an inhibition of mDCEXO-stimulated OT I CD8^+ T cell proliferative response by anti-LFA-1 Ab (10 µg/ml) of 49%.

As to OVA-specific TCR of OT I CD8^+ T cells, in assay [3], the inhibition of Th-APC-stimulated OT I CD8^+ T cell proliferative response by anti-MHC class I Ab (15 µg/ml) came out at 38%, the inhibition of aTEXO-stimulated OT I CD8^+ T cell proliferative response by anti-H-2K^b Ab (10 µg/ml) came out at 49% and the inhibition of mDCEXO-stimulated OT I CD8^+ T cell proliferative response by anti-MHC class I Ab (10 µg/ml) is 62%.
